# Reference: the DeepSol protein solubility set
# Experiment: soluble on expression in E. coli; label from the status in PepcDB or PDB records
row,Sequence,soluble on expression in E. coli
1,VPGTVEVVFDKPEYRTGEEASALITFPEPVEDALLSLERDKVEATALLSKGADWLRLEKLNPTQYRVWIPVREEFSPNLTFSVLYTKGGDYSFQNAGIKVGMPQVEIDIATDKERYEPGETVTVTLATRFAGKPVSSHLTVSVVDEMVYALQAE,not soluble
2,VQVGNCLQVMWLADRHSDPELYTAAKHCAKTHLAQLQNTEEFLHLPHRLLTDIISDGVPCSQNPTEAIEAWINFNKEEREAFAESLRTSLKEIGENVH,soluble
3,VRLLESGGGLVQPGGSLKLSCAASGFDYSRYWMSWVRQAPGKGLKWIGEINPVSSTINYTPSLKDKFIISRDNAKDTLYLQISKVRSEDTALYYCARLYYGYGYWYFDVWGAGTTVTVSSAKTTPPSVYPLAPGSAAAAASMVTLGCLVKGYFPEPVTVTWNSGSLAAGVHTFPAVLQAALYTLSSSVTVPSSSWPSETVTCNVAHPASSTKVDKKIVPRA,soluble
4,VSNKTYYLVGTSHISENSVKLVKEVIERVQPDTVSIELDKKRYEKYTNSNQWGNTDIIKIIKEKKLVVLISNIVYSAYQKKLANTKGTTQAGELIQAIKSAKEIGANIQLIDRDIQVTFKRMWRHLSFLEKPKLFMTFFTEFDDIEQDKLEEYLESDSFDKVFISLSKKYPSLYQDMITDRDKYMSTKLKNNSSQVNVVVVGKAHMKGIKEKLEKRTEFSL,not soluble
5,VSPKTYKDADFYVAPTQQDVNYDLVDDFGANGNDTSDDSNALQRAINAISRKPNGGTLLIPNGTYHFLGIQMKSNVHIRVESDVIIKPTWNGDGKNHRLFEVGVNNIVRNFSFQGLGNGFLVDFKDSRDKNLAVFKLGDVRNYKISNFTIDDNKTIFASILVDVTERNGRLHWSRNGIIERIKQNNALFGYGLIQTYGADNILFRNLHSEGGIALRMETDNLLMKNYKQGGIRNIFADNIRCSKGLAAVMFGPHFMKNGDVQVTNVSSVSCGSAVRSDSGFVELFSPTDEVHTRQSWKQAVESKLGRGCAQTPYARGNGGTRWAARVTQKDACLDKAKLEYGIEPGSFGTVKVFDVTARFGYNADLKQDQLDYFSTSNPMCKRVCLPTKEQWSKQGQIYIGPSLAAVIDTTPETSKYDYDVKTFNVKRINFPVNSHKTIDTNTESSRVCNYYGMSECSSSRWER,soluble
6,VTEVEQKLQIVHQTLSMLDSHGFENILQEMLQSITLKTGELLGADRTTIFLLDEEKQELWSIVAAGEGDRSLEIRIPADKGIAGEVATFKQVVNIPFDFYHDPRSIFAQKQEKITGYRTYTMLALPLLSEQGRLVAVVQLLNKLKPYSPPDALLAERIDNQGFTSADEQLFQEFAPSIRLILESSRSFYIATQKQRAAAAMMKAVKSLSQSSLDLEDTLKRVMDEAKELMNADRSTLWLIDRDRHELWTKITQDNGSTKELRVPIGKGFAGIVAASGQKLNIPFDLYDHPDSATAKQIDQQNGYRTCSLLCMPVFNGDQELIGVTQLVNKKKTGEFPPYNPETWPIAPECFQASFDRNDEEFMEAFNIQAGVALQNAQLFATVKQQEQGSRSHHHHHH,soluble
7,VTGFGLRLAEAKARRGPLCLGIDPHPELLRGWDLATTADGLAAFCDICVRAFADFAVVKPQVAFFESYGAAGFAVLERTIAELRAADVLVLADAKRGDIGATMSAYATAWVGDSPLAADAVTASPYLGFGSLRPLLEVAAAHGRGVFVLAATSNPEGAAVQNAAADGRSVAQLVVDQVGAANEAAGPGPGSIGVVVGATAPQAPDLSAFTGPVLVPGVGVQGGRPEALGGLGGAASSQLLPAVAREVLRAGPGVPELRAAGERMRDAVAYLAAV,not soluble
8,VTPELDEREQEVIVRSAINQFEGFIKLNKKIPPEVLTSLNGIDEAARLADTIAAHMPLKLVDKQQVLEIIDVTERLEFLMGQMESEIDLLQVEKRIRGRVKKQMEKSQREYYLNEQMKAIQKELGEMEDAPDEFETLQKKIDESKMPQEAREKTEQELQKLKMMSPMSAEATVVRSYIDWMVSVPWTKRSKVKKNLAKAEEILNEDHYGLERVKERILEYLAVQNRINKLKGPILCLVGPPGVGKTSLGRSIASATGRKYVRMALGGVRDEAEIRGHRRTYIGSLPGKLIQKMSKVGVKNPLFLLDEIDKMSSDMRGDPASALLEVLDPEQNNSFNDHYLEVDYDLSDVMFVATSNSMNIPGPLLDRMEVIRL,not soluble
9,VTVQDGNFSFSLESVKKLKDLQEPQEPRVGKLRNFAPIPGEPVVPILCSNPNFPEELKPLCKEPNAQEILQRLEEIAEDPGTCEICAYAACTGC,soluble
10,VVQPADIDVPETPARPVLVVDFGAQYAQLIARRVREARVFSEVIPHTASIEEIRARQPVALVLSGGPASVYADGAPKLDPALLDLGVPVLGICYGFQAMAQALGGIVAHTGTREYGRTELKVLGGKLHSDLPEVQPVWMSHGDAVTAAPDGFDVVASSAGAPVAAFEAFDRRLAGVQYHPEVMHTPHGQQVLSRFLHDFAGLGAQWTPANIANALIEQVRTQIGDGHAICGLSGGVDSAVAAALVQRAIGDRLTCVFVDHGLLRAGERAQVQRDFVAATGANLVTVDAAETFLEALSGVSAPEGKRKIIGRQFIRAFEGAVRDVLDGKTAEFLVQGTLYPDVVESGGGSGTANIKSHHNVGGLPDDLKFTLVEPLRLLFKDEVRAVGRELGLPEEIVARQPFPGPGLGIRIVGEVTAKRLDTLRHADSIVREELTAAGLDNQIWQCPVVLLADVRSVGVQGDGRTYGHPIVLRPVSSEDAMTADWTRVPYEVLERISTRITNEVAEVNRVVLDITSKPPATIEWE,not soluble
11,WKRGKISTQLDDDEFRAGMRKAQVIDVREKKEFDAGHILGARNIPYSQMKNRTQELRSDLPVYLYDQGRTFSGRAAMLLSKKGFTQLYILKNGYQRWTGKTKKTKY,soluble
12,WTVNPYRGCTHACVYCFARKTHSYLDLDTGLGFDSQIVVKINAPDLLRRQLASRRWHGEHVAMGTNVDCYQRAEGRYQLMPGIIAALRDHANPFSILTKGTLILRDLDLLEQAAEVTDVGISVSVGFTDHELWRTVEPGTPAPERRLDVVRTLSEHGIGCGVLMAPVIPFLSDQPAQLRATVRAIAAAGATSVTPLVLHLRPGAREWFMAWLEHHHPYLVRRYERLYAEGAYAPKWYQRRITRQVHELAQEYGIGPTRAGMPRRIPEPEPETPPTPEPTQLTLL,not soluble
13,WYPSRPLVTTPSQADIQADQSSPRDLLEYFLSGLGETSLPVIQQQVQRYEQENQGLLIDSSLFAQYVQYKAALSELTLPQASGGLSTQEWWQLHQSLLDLQARYFSAEQQALFAEENRLRELAIEKRRIYEQYGQSEEAQRAWQALLLDQPDFIQRSEATAQLLPQLTQAGQGDTQQRYLARVALVGEQGAQRLAELDDSRATFEQQFQDYYQARAAILVRNELSASEQQTQIQQLREQHFAPEQWRRIDALERLKDN,not soluble
14,YEPEGNRADYWRFARALYAAGFRAGELAYNCFSYHFTPAGSMMETAAHAVGCTVFPGGTGQTEQQVRAIHDLAPSGYTGTPSFLKLILEKADELGIRLDSLRRALVSGEAFPPSLRDWLAARGIEGYQAYGSADLGMIAFETPAREGLVVGED,not soluble
15,YHTEKTLPERTNEAAMSAAVVRGKLVWEQNNCVGCHTLLGEGAYFAPELGNVVGRRGGEEGFNTFLQAWMNIQPLNVPGRRAMPQFHLSEGQVDDLAEFLKWSSKIDTNQWPPNKEG,not soluble
16,YIQLEGEKFNESARVFTEYLKTKTSDEIPSLLQSYSKSLTISAHLKRDIVDKRLPLVHDLDIKDGKLSNYIVMLDMSVSTADGKQVTVQFVHGVDVYKEAKNI,not soluble
17,YRATKLWNEVTTSFRAGMPLRKHRQHFKKYGNCFTAGEAVDWLYDLLRNNSNFGPEVTRQQTIQLLRKFLKNHVIEDIKGRWGSENVDDNNQLFRFPA,soluble
18,YTIKEAERGVVTRFGKFSHLVEPGLNWKPTFIDEVKPVNVEAVRELAASGVMLTSDENVVRVEMNVQYRVTNPEKYLYSVTSPDDSLRQATDSALRGVIGKYTMDRILTEGRTVIRSDTQRELEETIRPYDMGITLLDVNFQAARPPEEVKAAFDDAIAARENEQQYIREAEAYSNEVQPRANGQAQRILEEARAYKAQTILEAQGEVARFAKLLPEYKAAPEITRERLYIETMEKVLGNTRKVLVNDKGGNLMVLPLDQMLKGGNAPAAKSDNGASNLLRLPPASSSTTSGASNTSSTSQGDIMDQRRANAQRNDYQRQGE,not soluble
